{"source": "patent US20140178389A1", "binders": {"B1": {"name": "h1B12.1 scFv displayed on the surface of yeast (scFv, part only; not given: linker, domain order, yeast display partner, V domains shown, not shown: another chain or arm of the molecule; large carriers; small tags and cut ends)", "VH": "EVQLQESGPGLVKPSETLSLTCTVSGFSLSDYGVSWIRQPPGKGLEWLGLIWGGGDTYYNSPLKSRLTISKDNSKSQVSLKLSSVTAADTAVYYCAKQRTLWGYDLYGMDYWGQGTLVTVSS", "VL": "DTQVTQSPSSLSASVGDRVTITCITSTDIDVDMNWYQQKPGKPPKLLISQGNTLRPGVPSRFSSSGSGTDFTFTISSLQPEDFATYYCLQSDNLPLTFGQGTKLEIK"}}, "key": {"[1]": {"biological_target": "recombinant cynomolgus IL-1β (cynomolgus) (UniProt P79182)", "sequence (P79182 117-268 limits assumed)": "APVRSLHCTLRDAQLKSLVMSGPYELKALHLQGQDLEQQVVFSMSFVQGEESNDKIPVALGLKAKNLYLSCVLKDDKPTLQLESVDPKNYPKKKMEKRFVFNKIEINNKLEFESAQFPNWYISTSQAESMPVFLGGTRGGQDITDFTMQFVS", "assay": "yeast surface display, flow cytometry with biotinylated antigen"}, "[2]": {"biological_target": "recombinant human IL-1β (human) (UniProt P01584)", "sequence (P01584 117-269)": "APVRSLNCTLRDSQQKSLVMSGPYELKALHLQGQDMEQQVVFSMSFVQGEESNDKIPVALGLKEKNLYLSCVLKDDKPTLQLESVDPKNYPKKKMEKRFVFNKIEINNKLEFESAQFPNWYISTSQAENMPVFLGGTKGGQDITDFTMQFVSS", "assay": "yeast surface display, flow cytometry with biotinylated antigen"}, "[3]": {"biological_target": "recombinant cynomolgus IL-1β (cynomolgus) (UniProt P79182)", "assay": "flow cytometry of yeast-displayed scFv, titration of biotinylated IL-1b, 25 °C, 30 min, mean fluorescence [Parental]"}, "[4]": {"biological_target": "recombinant human IL-1β (human) (UniProt P01584)", "assay": "flow cytometry of yeast-displayed scFv, titration of biotinylated IL-1b, 25 °C, 30 min, mean fluorescence [Parental]"}}}
{"binder": "B1", "values": [{"measurement": "Kd", "setting": "[1]", "result": "10 to 30", "unit": "nM"}, {"measurement": "Kd", "setting": "[2]", "result": "10 to 30", "unit": "nM"}, {"measurement": "EC50", "setting": "[3]", "result": 23.5, "unit": "nM"}, {"measurement": "EC50", "setting": "[4]", "result": 15.1, "unit": "nM"}]}
